Measured values as given in patent US10570379B2, “Polypeptides for carbon-carbon bond formation and uses thereof” (INVISTA North America S.à.r.l., priority 2015, dated 2020).

B1: Bdigene 0244: 4-Hydroxybutyrate-CoA transferase from Clostridium aminobutyricum, Uniprot Q9RM86, SEQ ID NO: 19 (protein, listed as Clostridium aminobutyricum)
chain: MDWKKIYEDRTCTADEAVKSIKSGDRVLFAHCVAEPPVLVEAMVANAAAYKNVTVSHMVTLGKGEYSKPEYKENFTFEGWFTSPSTRGSIAEGHGQFVPVFFHEVPSLIRKDIFHVDVFMVMVSPPDHNGFCCVGVSSDYTMQAIKSAKIVLAEVNDQVPVVYGDTFVHVSEIDKFVETSHPLPEIGLPKIGEVEAAIGKHCASLIEDGSTLQLGIGAIPDAVLSQLKDKKHLGIHSEMISDGVVDLYEAGVIDCSQKSIDKGKMAITFLMGTKRLYDFAANNPKVELKPVDYINHPSVVAQCSKMVCINACLQVDFMGQIVSDSIGTKQFSGVGGQVDFVRGASMSIDGKGKAIIAMPSVAKKKDGSMISKIVPFIDHGAAVTTSRNDADYVVTEYGIAEMKGKSLQDRARALINIAHPDFKDELKAEFEKRFNAAF
B2: Bdigene 237: Acetate/Propionate CoA-transferase (YdiF) from Clostridium propionicum, Uniprot Q9L3F7, SEQ ID NO: 1 (protein, listed as Clostridium propionicum)
chain: MRKVPIITADEAAKLIKDGDTVTTSGFVGNAIPEALDRAVEKRFLETGEPKNITYVYCGSQGNRDGRGAEHFAHEGLLKRYIAGHWATVPALGKMAMENKMEAYNVSQGALCHLFRDIASHKPGVFTKVGIGTFIDPRNGGGKVNDITKEDIVELVEIKGQEYLFYPAFPIHVALIRGTYADESGNITFEKEVAPLEGTSVCQAVKNSGGIVVVQVERVVKAGTLDPRHVKVPGIYVDYVVVADPEDHQQSLDCEYDPALSGEHRRPEVVGEPLPLSAKKVIGRRGAIELEKDVAVNLGVGAPEYVASVADEEGIVDFMTLTAESGAIGGVPAGGVRFGASYNADALIDQGYQFDYYDGGGLDLCYLGLAECDEKGNINVSRFGPRIAGCGGFINITQNTPKVFFCGTFTAGGLKVKIEDGKVIIVQEGKQKKFLKAVEQITFNGDVALANKQQVTYITERCVFLLKEDGLHLSEIAPGIDLQTQILDVMDFAPIIDRDANGQIKLMDAALFAEGLMGLKEMKS
B3: Bdigene 273: Acetate CoA-transferase YdiF from Firmicutes bacterium CAG, Uniprot R5ADR5, SEQ ID NO: 6 (protein)
chain: MARQVKVITAAEAAALIKNGDTVTTSGFVASAIPEALDRAVEERFLATGEPRDITYVYCGSQGNKDGRGAEHFAHEGLLKRYIAGHWATVPALQKMALENKMEAYNVSQGALCHLFRDIAAHRPGCFTKVGLGTFIDPRNGGGKVNDVTKEDIIELVNIKGQDYLFYPAFPINVALIRGTYADESGNISFEKEVSPLEGTSVCQAVKNSGGIVVVQVEKLVKAGTLDPRLVKVPGIYVDYVVVADPKDHQQTLDCDYDPALSGEMRNPDVAPEPLPLSAKKIIGRRGAVELEKDVAVNLGVGAPEYVASVANEEGIGDFMTLTVEGGAVGGVPAGGIRFGSAYNADALLDQGYQFDFYDGGGLDLCYLGLAECDPHGSINVSRFGPRIAGCGGFINITQCTPKVFFCGTFTAGGLKVKVEDGKVVIAQEGKNKKFVKSVEQVTFNGDIANKNGQHVMYITERCVFVLKEDGLHLTEIAPGIDLQTQILDQMEFEPIIDRNADGSITLMDAKLFADGLMGLKEMKEGK
B4: Bdigene 272: Acetate CoA-transferase YdiF from Peptostreptococcaceae bacterium oral taxon, Uniprot U2L5C9, SEQ ID NO: 5 (protein)
chain: MAKFVTLEEAVSVVKNGDTVATTGFVQVANPEALEWALGKRFEETKEPRDLTLFYCAGQGDGDCRAVNHFAKEGMLKRVVAGHFNMAPLLRQFISDNKCEAYNVPQGVLCNMVRDIAAKKPGVISHVGLNTFADPRIEGCKINLVTKEDIVELMMINGEEKLFYKTFPLTIAFIKGTYADERGNVTLENEGIPSEATSIAQSVHNCGGKVIVQVEKVVAAGTLDPKLVKVPGIYVDYIVQVDDPSMRQQCYGVDYEPELAGNVYIPLSDIPLKTPLNERKIIARRGAFEIRKGNVGNLGIGVPEVVSEVVSEEGITDWLTLTVEVGPVGGSPQGKNRFGTAINAEAILDQPYQFDFYDGGGLDIAYLGLAQADAKGNLNVSKFGDRVAGCGGFIDISQNSKAVVFCGSFTAGGLKVEVNDGKLNIVQEGKVKKFVNKVQQITFSGEYARKTGQRVFYVTERAVFQMKPEGLTLIEIAPGVDLEKDVLNQMEFKPLIAKDLKLMDERIFRPGPMGIKNDN
B5: Bdigene 0345: Succinyl-CoA--D-citramalate CoA-transferase from Chloroflexus aurantiacus, Uniprot A9WGE3 (protein, UniProt A9WGE3 1-402, looked up)
Succinyl-CoA--D-citramalate …: MSSQRPPRPLDDVRVLELGAFLAGPFCGQLLADFGAEVIKVEPPGKGDPMREWGRHRYKGRTLWWPVLARNKKSITIDLRTPEGQALVKRLVPHVDMVLENFRPGTLEEWGLGWEELHALNPGLIMIRVSGFGQTGPYRDKAGFGSIGEAMGGIRAITGFPDRPPTRIGISIGDSLAATFAALGALVALHQRQRSGQGQVVDIGIYEGVLALMESMIPEYQLTGHIRERTGNILPNVAPSNIYPTADGSWFVIGANADTIFTRLAQAMGQPELATDPRFATHQARGEHQAELDDLIAAWTLNYTADQLQVMMDEYGVPAGRIYTAKEMLSDPHFIARQSIIGVHDPDLGEIKMQNVVPRLSATPGGVDWTGPALGQHNREIFTDLLGLTEDDLAMLQAKRVI
B6: Bdigene 274: Acetate CoA-transferase YdiF from Megasphaera elsdenii DSM 20460, Uniprot G0VND6, SEQ ID NO: 7 (protein, listed as Megasphaera elsdenii)
chain: MRKVEIITAEQAAQLVKDNDTITSIGFVSSAHPEALTKALEKRFLDTNTPQNLTYIYAGSQGKRDGRAAEHLAHTGLLKRAIIGHWQTVPAIGKLAVENKIEAYNFSQGTLVHWFRALAGHKLGVFTDIGLETFLDPRQLGGKLNDVTKEDLVKLIEVDGHEQLFYPTFPVNVAFLRGTYADESGNITMDEEIGPFESTSVAQAVHNCGGKVVVQVKDVVAHGSLDPRMVKIPGIYVDYVVVAAPEDHQQTYDCEYDPSLSGEHRAPEGATDAALPMSAKKIIGRRGALELTENAVVNLGVGAPEYVASVAGEEGIADTITLTVEGGAIGGVPQGGARFGSSRNADAIIDHTYQFDFYDGGGLDIAYLGLAQCDGSGNINVSKFGTNVAGCGGFPNISQQTPNVYFCGTFTAGGLKIAVEDGKVKILQEGKAKKFIKAVDQITFNGSYAARNGKHVLYITERCVFELTKEGLKLIEVAPGIDIEKDILAHMDFKPIIDNPKLMDARLFQDGPMGLKK
B7: Bdigene 0344: Succinyl-CoA: acetate CoA-transferase from Acetobacter aceti, Uniprot B3EY95 (protein, UniProt B3EY95 1-505, looked up)
Succinyl-CoA:acetate …: MTERIRNVALRSKVCPAETASELIKHGDVVGTSGFTGAGYPKEVPKALAQRMEAAHDRGEKYQISLITGASTGPQLDGELAKANGVYFRSPFNTDATMRNRINAGETEYFDNHLGQVAGRAVQGNYGKFNIALVEATAITEDGGIVPTSSVGNSQTFLNLAEKVIIEVNEWQNPMLEGIHDIWDGNVSGVPTRDIVPIVRADQRVGGPVLRVNPDKIAAIVRTNDRDRNAPFAAPDETAKAIAGYLLDFFGHEVKQNRLPPSLLPLQSGVGNVANAVLEGLKEGPFENLVGYSEVIQDGMLAMLDSGRMRIASASSFSLSPEAAEEINNRMDFFRSKIILRQQDVSNSPGIIRRLGCIAMNGMIEADIYGNVNSTRVMGSKMMNGIGGSGDFARSSYLSIFLSPSTAKGGKISAIVPMAAHVDHIMQDAQIFVTEQGLADLRGLSPVQRAREIISKCAHPDYRPMLQDYFDRALKNSFGKHTPHLLTEALSWHQRFIDTGTMLPS

Legend:
[1] = Substrate specificity, 4-Hydroxybutyrate with acetyl-CoA, LC-MS; type: biochemical; conditions: substrate 4-Hydroxybutyrate + acetyl-CoA
Protocol: (§1) Acetyl-CoA was used at a final concentration of 1.5 mM and 30 mM of the substrate being studied (e.g. carboxylic acid salts, such as sodium acrylate) or 1.5 mM of propionyl-CoA in 50 mM Hepes buffer (pH 7.5). The reaction was started by addition of 0.5 mg/mL of YdiF pure protein or mutants to a final volume of 250 μL and incubated for 1 to 10 hours at 30° C.
(§2) All samples were prepared in triplicate and spun down at 15000 g for 20 min at 4° C. Detection of the thiol product (e.g. acryloyl-CoA) synthesized from CoA-transferase activity and the keto-thiol product (e.g. 3-oxopent-4-enoyl-CoA) due to putative thiolase activity of YdiF (or homologues) was carried out by Liquid Chromatography coupled to a qTof-Mass spectrometry (in positive mode), using a C18 column (Zorbax Eclipse C18, 2.1×50 mm, 1.8μ, Agilent, code product: 959757-902) and a gradient of 10 mM ammonium acetate and acetonitrile as mobile phase.
(§3) To study the substrate specificity of YdiF, several commercially available substrates were provided to YdiF (and homologues) in combination with acetyl-CoA, as described in Example 2. LC-MS was used to detect the thiol-product synthesized via the transferase activity and the ketothiol-product synthesized via the thiolase activity.
4-Hydroxybutyrate was used as a substrate with acetyl-CoA for protein 244 and the corresponding products from the transferase and ketothiolase activities of protein 244 were detected.

[2] = Screen for dual transferase/ketothiolase activity with acetyl-CoA and sodium acrylate, LC-MS detection; type: biochemical; conditions: for ketothiol-product: 3-oxopent-4-enoyl-CoA via thiolase activity; for thiol-product: propenoyl-CoA via transferase activity
Protocol: as §1
Two controls were made from similar mixture except that the enzymes were inactivated by heating-up at 95° C. for 20 min or they were replaced by Buffer C.
as §2
YdiF from Clostridium propionicum belongs to the enzymatic class EC2.8.3.8. Other members of this enzyme class with similar structural features to YdiF, as well as proteins with a CoA-transferase activity from close-by enzymatic classes, were screened for dual transferase/ketothiolase activity as described in Example 2. Acetyl-CoA and sodium acrylate were provided as substrates. LC-MS was used to detect the thiol-product (propenoyl-CoA) synthesized via the transferase activity and the ketothiol-product (3-oxopent-4-enoyl-CoA) synthesized via the thiolase activity, as described in Example 2.

[3] = Solubility of the expressed protein (Table 3); conditions: protein expressed in E. coli
Protocol: From a fresh LB plate containing the desired clone transformant, one colony (or small scratch) was picked to inoculate 25 mL of LB supplemented with the relevant antibiotic and the pre-culture was incubated overnight at 37° C., 230 rpm. The following morning, the TB auto-induced medium (Merck/Code product: 71491-5) was prepared by mixing 60 g TB/L supplemented with 10 mL Glycerol/L of TB and microwaved during 3+2 minutes at full power. The TB was cooled down before use and splitting it in sterile flasks. Then, the pre-culture incubated overnight in LB was centrifuged and the supernatant discarded. The obtained pellet was resuspended with 5 mL of freshly prepared TB medium and used to inoculate 500 mL of TB dispensed in sterile flasks and supplemented with the appropriate antibiotic. The inoculated medium was incubated at 28° C. for at least 20 h, 230 rpm.
The culture was centrifuged at least at 3000 g/20 min/4° C. and the pellet used immediately or stored at −80′C.
The pellets (fresh or thawed) were resuspended in 10 to 20 mL of Buffer A (50 mM Hepes+150 mM NaCl+40 mM Imidazole+5% Glycerol−pH 7.5). The resuspended cells were then sonicated in ice for, 5 min at 37% Amplitude with 5″ ON and 15″ OFF sonication pulse. The sonicated cells were centrifuged for at least 20 min at 15500 g and 4° C. The supernatant containing the soluble fraction of proteins was recovered, filtered using 0.45 or 0.2 um filters, and used for His-trap protein purification.

[4] = Substrate specificity, 2-hexenoate with acetyl-CoA, LC-MS; type: biochemical; conditions: substrate 2-hexenoate + acetyl-CoA
Protocol: as §1, §2, §3

[5] = Substrate specificity, propionate with acetyl-CoA, LC-MS; type: biochemical
Protocol: as §1, §2, §3

[6] = Substrate specificity, butyrate with acetyl-CoA, LC-MS; type: biochemical
Protocol: as §1, §2, §3

[7] = Substrate specificity, 4-pentenoate with acetyl-CoA, LC-MS; type: biochemical; conditions: substrate 4-pentenoate + acetyl-CoA
Protocol: as §1, §2, §3

[8] = Substrate specificity, 6-heptenoate with acetyl-CoA, LC-MS; type: biochemical; conditions: substrate 6-heptenoate + acetyl-CoA
Protocol: as §1, §2, §3

[9] = Substrate specificity, 3-butenoate with acetyl-CoA, LC-MS; type: biochemical; conditions: substrate 3-butenoate + acetyl-CoA
Protocol: as §1, §2, §3

Molecule	ketothiol-product [2]	thiol-product [2]	Solubility [3]	further results
B1	✓	✓	✓	ketothiol-product ([1]; listed as Protein 244): ✓; thiol-product ([1]; listed as Protein 244): ✓; ketothiol-product ([1]; listed as protein 244): detected; thiol-product ([1]; listed as protein 244): detected
B2	✓	✓		ketothiol-product [4]: ✓; thiol-product [4]: ✓; ketothiol-product [5]: ✓; thiol-product [5]: ✓; ketothiol-product [6]: ✓; thiol-product [6]: ✓; ketothiol-product [7]: ✓; thiol-product [7]: ✓; ketothiol-product [8]: ✓; thiol-product [8]: ✓; ketothiol-product [9]: ✓; thiol-product [9]: ✓
B3	✓	✓	✓	
B4	✓	✓	✓	
B5	✓	✓	✓	
B6	✓	✓	✓	
B7	✓	✓	✓	
